In paper PMC10245032 (EMBO Molecular Medicine, 2023):

B1: mAb 3764 (recombinant human IgG1) (antibody, V domains shown)
VH: QVQLVESGGGVVQPGRSLRLSCAASGFTFSSYGMHWVRQAPGKGLEWVAVIWYDGSYKSYIESVKGRFTISRDNSKNTLYLQMNSLRVEDTAVYYCALGYSSGQGTLDNWGQGTLVTVSS
VL: DVVMTQSPLSLAVTLGQPASISCRSTQSLVYSDGNTYLNWFQQRPGQSPRRLIYKVSNRDSGVPDRFSGSESGTDFTLKISRVEAEDVGLYYCMQGTHWPWTFGQGTKVEIK
notes: heavy chain variable region of mAb 3764 (IGHV3-33); human IgG1 constant region from the IGHG1 expression vector; kappa chain variable region of mAb 3764; human Ig kappa constant region from the IGKC expression vector; IgG1; Somatic mutations H.N56Y and H.Y58S against germline are already part of the antibody; also called C‐linker specific mAb 3764; source: HEK293T, co-transfected, purified from …
B2: 3764 Fab (Fab, V domains shown)
VH: QVQLVESGGGVVQPGRSLRLSCAASGFTFSSYGMHWVRQAPGKGLEWVAVIWYDGSYKSYIESVKGRFTISRDNSKNTLYLQMNSLRVEDTAVYYCALGYSSGQGTLDNWGQGTLVTVSS
VL: DVVMTQSPLSLAVTLGQPASISCRSTQSLVYSDGNTYLNWFQQRPGQSPRRLIYKVSNRDSGVPDRFSGSESGTDFTLKISRVEAEDVGLYYCMQGTHWPWTFGQGTKVEIK
notes: mAb 3764 heavy chain variable region upstream of human IgG1-CH1; mAb 3764 kappa chain variable region upstream of human IgK constant domain; also called mAb 3764 Fab; source: HEK293F, transiently co-transfected, purified (Kappa-select, MonoS cation exchange, Superdex 200 SEC)

Columns and labels:
Conditions in all cases: both partners purified
[1] = target: T1, PfCSP C‐terminal linker peptide P2 (PfCSP 281–294) (Plasmodium falciparum NF54); assay: ELISA; antigen coated on 384-well plates overnight at 4°C in PBS (full-length PfCSP 0.4 μg/ml, C-CSP 1 μg/ml, peptides 2 μg/ml); mAb from 4 μg/ml in PBS, RT 1.5 h; detected with anti-human IgG-HRP; AUC
T1 construct: Plasmodium falciparum NF54 circumsporozoite protein (PfCSP), aa 281–294 of the C-linker; One of 14 overlapping peptides (P1-P14); also called C‐CSP peptide; source: synthetic peptide (PSL Peptide Specialty Laboratories GmbH)
T1 chain: QGHNMPNDPNRNVD

[2] = target: T2, PfCSP C‐terminal domain (C‐CSP), NF54 (Plasmodium falciparum NF54, UniProt P19597); assay: as above
T2 construct: Plasmodium falciparum NF54 circumsporozoite protein, C-terminal domain made of the C-linker (aa 273–310) and the α-TSR domain (aa 311–384); also called C‐CSP peptide; PfCSP C terminus; source: E. coli, by the EMBL protein expression and purification core facility

[3] = target: T3, PfCSP C‐linker peptide (aa 273–310) (Plasmodium falciparum NF54, UniProt P19597); assay: as above
T3 construct: Plasmodium falciparum NF54 circumsporozoite protein, C-linker, aa 273–310; source: synthetic peptide (PSL Peptide Specialty Laboratories GmbH)
T3 chain: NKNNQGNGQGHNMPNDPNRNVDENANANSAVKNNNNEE

[4] = target: T4, full‐length PfCSP (FL‐CSP), NF54 (Plasmodium falciparum NF54); assay: as above
T4 construct: Plasmodium falciparum NF54 circumsporozoite protein, called full-length; source: FL-CSP expressed in E. coli by the EMBL core facility; a biotinylated NF54 FL-CSP was expressed in HEK293F and purified (HisTrap HP, SEC)

[5] = target: T1, PfCSP C‐terminal linker peptide P2 …; assay: crystal structure; 3764 Fab and PfCSP 281-294 peptide mixed 1:3; 19% isopropanol, 19% PEG 4000, 5% glycerol, 0.095 M sodium citrate pH 5.6; 2.36 Å

Binder	binding result [1]	binding result [2]	binding result [3]	binding result [4]	binding result [5]
B1	binds	binds	binds	binds	
B2					binds
